The test addresses T1, GST-BAK (human).
T1 chain: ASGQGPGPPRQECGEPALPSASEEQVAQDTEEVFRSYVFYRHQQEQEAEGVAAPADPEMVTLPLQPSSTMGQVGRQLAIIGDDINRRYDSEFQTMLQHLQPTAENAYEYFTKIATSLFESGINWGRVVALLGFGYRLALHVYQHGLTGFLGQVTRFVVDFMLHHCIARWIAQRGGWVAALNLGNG
In words: fluorescence polarisation; competitive: displacement of 10 nM BID BH3 SAHB-F from 1 µM GST-BAK by peptides at 500-0.2 µM; 50 mM Tris-HCl pH 7.5, 50 mM KCl, 0.1 mg/mL BSA, 2 mM DTT, 0.005% Tween-20; 60 min at RT. The settings on record: both partners purified. On the technique in general: Fluorescence polarisation rises when a labelled molecule tumbles more slowly, as on binding a larger partner.

B1: W(0') BID BH3 peptide (peptide)
chain: Ac-EDWIRNIARHLAQVGDSMDRSI-NH2
As a reminder, the IC50 is the concentration at which inhibition is half-maximal. A higher IC50 goes with lower potency. B1: the IC50 was 27.4 ± 16.4 µM.

The values are drawn from article PMC8752837, “Structural basis of BAK activation in mitochondrial apoptosis initiation” (Nature Communications, 2022).
